This passage reports Km of Ub-AMC hydrolysis by BAP1N (250 pM enzyme, 100 nM-7.5 µM Ub-AMC, 25°C, double-reciprocal plot) results from article PMC5665613.

The target in this experiment is Ub-aminomethylcoumarin (Ub-AMC) (UniProt P0CG47).

BAP1N (1-240), wild-type catalytic domain of BAP1, sequence (Q92560 1-240): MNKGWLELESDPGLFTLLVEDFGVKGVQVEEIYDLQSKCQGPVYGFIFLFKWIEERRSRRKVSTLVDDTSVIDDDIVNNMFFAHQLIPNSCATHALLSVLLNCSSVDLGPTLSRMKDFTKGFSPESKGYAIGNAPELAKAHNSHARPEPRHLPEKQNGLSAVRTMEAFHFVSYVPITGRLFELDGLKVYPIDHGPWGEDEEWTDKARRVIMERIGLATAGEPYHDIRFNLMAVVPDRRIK

On to “BAP1N (1-240), wild-type catalytic domain of BAP1 (from UniProt Q92560 1-240) (domain or fragment)”, for which the Km of Ub-AMC hydrolysis by BAP1N (250 pM enzyme, 100 nM-7.5 µM Ub-AMC, 25°C, double-reciprocal plot) was determined as 2.9 µM.
